Test results from patent US12344663B2, “Anti-C3 antibodies and antigen-binding fragments thereof and their uses for treating eye or ocular diseases” (CDR-Life AG, priority 2021, dated 2025).
Positions count from the first letter of the chain named.

B1: Clone VI: Clone V with additional rabbit residues replaced by germline, SEQ ID NO: 34 (protein)
scFv: MQLVLTQSPSASASLGASVKLTCTLSSAHKTYTIDWYQQQPEKGPRYLMQLKSDGSYTKGTGVPDRFSGSSSGAERYLTISSLQSEDEADYYCGTDYGGGYVFGGGTKLTVLGGGGGSGGGGSGGGGSGGGGSQVQVVESGGGSVQPGRSLRLSCAASGFSLYNYAMNWVRQAPGKGLEWIGIINTDGNTNYASWAKGRFTISTDNSKNTLYLQMNSLRAEDTASYYCARAVGYHHHALDPWGQGTSVTVSS
modifications: ScFv
B2: Clone XIII: scFv combining affinity maturation substitutions and disulfide bond stabilization, SEQ ID NO: 41 (protein)
scFv: MQLVLTQSPSASASLGASVKLTCTLSSAHKTYTIDWYQQQPEKCPRYLMQLKSEGSYTKGTGVPDRFSGSSSGAERYLTISSLQSEDEADYYCGTEGVGGYVFGGGTKLTVLGGGGGSGGGGSGGGGSGGGGSQVQVVESGGGSVQPGRSLRLSCAVSGFSLYNYAMNWVRQAPGKGLEWIGIINVGGGTNYASWAKGRFTISTDNSKNTVYLQMNSLRAEDTASYYCARAVGYHHARLDPWGCGTSVTVSS
modifications: ScFv
B3: Clone XIV: scFv combining affinity maturation substitutions and disulfide bond stabilization, SEQ ID NO: 42 (protein)
scFv: B2 scFv with A237S
modifications: ScFv
B4: Clone IV: rabbit-derived parental anti-C3 antibody, SEQ ID NO: 32 (protein)
chain: QSVKESGGRLVTPGTPLTLTCTVSGFSLYNYAMNWVRQAPGKGLEWIGIINTDGNTNYASWAKGRFTISTTSSTTVDLKITSPTTEDTATYFCPRAVGYHHHALDPWGPGTLVTVSSGGGGSGGGGSGGGGSGGGGASELVLTQSPSVSAALGASAKLTCTLSSAHKTYTIDWYQQQQGEAPRYLMQLKSDGSYTKGTGVPDRFSGSSSGADRYLIIPSVQADDEADYYCGTDYGGGYVFGGGTQLTVTG
modifications: scFv
B5: Beovu: comparator in EpiMatrix table; brolucizumab is a scFv (antibody, chains of the INN, looked up, V domains shown)
VH: EVQLVESGGGLVQPGGSLRLSCTASGFSLTDYYYMTWVRQAPGKGLEWVGFIDPDDDPYYATWAKGRFTISRDNSKNTLYLQMNSLRAEDTAVYYCAGGDHNSGWGLDIWGQGTLVTVSS
VL: EIVMTQSPSTLSASVGDRVIITCQASEIIHSWLAWYQQKPGKAPKLLIYLASTLASGVPSRFSGSGSGAEFTLTISSLQPDDFATYYCQNVYLASTNGANFGQGTKLTVL
modifications: scFv
notes: brolucizumab is a scFv

Key:
human C3 = human C3 (Homo sapiens, UniProt P01024); assay: SPR (Biacore T100) binding to human C3; conditions: C3 and C3b; in words
human C3, sequence (P01024 23-1663): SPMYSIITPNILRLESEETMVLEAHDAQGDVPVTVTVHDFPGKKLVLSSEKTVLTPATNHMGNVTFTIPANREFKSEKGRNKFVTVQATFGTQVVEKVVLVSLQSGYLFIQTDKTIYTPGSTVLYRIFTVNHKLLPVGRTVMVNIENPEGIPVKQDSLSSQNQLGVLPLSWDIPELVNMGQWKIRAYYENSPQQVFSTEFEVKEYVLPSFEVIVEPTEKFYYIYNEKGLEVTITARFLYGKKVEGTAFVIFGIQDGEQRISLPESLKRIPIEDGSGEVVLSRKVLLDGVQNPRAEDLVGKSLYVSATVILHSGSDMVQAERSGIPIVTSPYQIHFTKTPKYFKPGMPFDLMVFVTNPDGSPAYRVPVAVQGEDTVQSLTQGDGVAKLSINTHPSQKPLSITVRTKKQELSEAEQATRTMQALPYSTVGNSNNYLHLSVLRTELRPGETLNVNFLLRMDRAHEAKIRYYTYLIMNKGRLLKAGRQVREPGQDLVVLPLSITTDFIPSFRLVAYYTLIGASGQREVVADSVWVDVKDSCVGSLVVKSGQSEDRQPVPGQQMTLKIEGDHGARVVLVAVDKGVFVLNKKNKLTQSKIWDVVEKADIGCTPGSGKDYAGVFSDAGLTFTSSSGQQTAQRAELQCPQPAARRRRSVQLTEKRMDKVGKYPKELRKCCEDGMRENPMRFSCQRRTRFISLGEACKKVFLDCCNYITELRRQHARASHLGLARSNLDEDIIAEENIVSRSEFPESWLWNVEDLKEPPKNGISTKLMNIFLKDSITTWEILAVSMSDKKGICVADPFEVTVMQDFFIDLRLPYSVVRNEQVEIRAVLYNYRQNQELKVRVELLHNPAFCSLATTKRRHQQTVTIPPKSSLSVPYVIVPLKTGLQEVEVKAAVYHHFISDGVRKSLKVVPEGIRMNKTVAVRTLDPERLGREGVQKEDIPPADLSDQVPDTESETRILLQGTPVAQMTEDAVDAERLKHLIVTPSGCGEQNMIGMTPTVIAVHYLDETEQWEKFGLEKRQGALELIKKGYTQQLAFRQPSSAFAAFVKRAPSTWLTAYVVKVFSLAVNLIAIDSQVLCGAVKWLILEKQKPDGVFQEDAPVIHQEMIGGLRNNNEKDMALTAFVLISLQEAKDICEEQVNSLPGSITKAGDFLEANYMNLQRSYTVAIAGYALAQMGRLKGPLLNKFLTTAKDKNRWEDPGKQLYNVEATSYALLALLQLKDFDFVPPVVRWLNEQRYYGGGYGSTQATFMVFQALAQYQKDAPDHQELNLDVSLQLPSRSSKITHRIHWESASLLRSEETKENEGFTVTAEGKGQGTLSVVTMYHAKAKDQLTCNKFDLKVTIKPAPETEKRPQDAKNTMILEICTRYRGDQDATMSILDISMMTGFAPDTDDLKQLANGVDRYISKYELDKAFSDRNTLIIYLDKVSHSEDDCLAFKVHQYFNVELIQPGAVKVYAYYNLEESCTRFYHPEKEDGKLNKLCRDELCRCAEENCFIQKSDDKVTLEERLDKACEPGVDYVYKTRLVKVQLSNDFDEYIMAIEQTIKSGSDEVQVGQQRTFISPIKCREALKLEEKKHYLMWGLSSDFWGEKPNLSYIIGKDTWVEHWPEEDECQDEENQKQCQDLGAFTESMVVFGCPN
Protocol: The kinetic parameters of the candidates are determined using a surface plasmon resonance (SPR) and Biacore T100 device. C3 and different variants thereof (Table 19) are immobilized as a ligand on a HC30M SPR sensor chip (XanTec bionanalytics, Germany) using EDC/[…] linking chemistry. Five increasing concentrations of each molecule (analyte) are consecutively injected using the single cycle kinetics (SCK) mode to determine the kinetic parameters. Regeneration between the candidates is done with 10 mM glycine*HCl, 2 M NaCl, pH 3.5. The data is fitted to a 1:1 Langmuir binding model and the kinetic parameters of on-rate (ka), off-rate (kd), and affinity […] were determined.

[1] = Thermal stability by differential scanning fluorimetry (DSF); assay type: physicochemical; conditions: for Melting temperature: DSF, Example 4
Description: Differential scanning fluorimetry (DSF) measures protein unfolding by monitory changes in fluorescence as a function of temperature.
The temperature of protein unfolding (Tm) is tied to the stability of antibodies, specifically to aggregation during storage and long-term stability of the therapeutic product. The thermal transitions of monoclonal antibody CH2 and CH3 domains are typically invariant for different antibodies within an isotype, with the CH2 domain unfolding prior to the CH3 domain.

[2] = Concentration-dependent monomeric stability study at 37° C.; assay type: physicochemical; conditions: for Loss in monomeric content after 2 weeks of incubation at 37° C.: Clone XIII at 150 mg/mL, Clone XIV at 50 mg/mL; for Loss in monomeric content with concentration: Clone XIII concentrated to 150 mg/mL, Clone XIV to 50 mg/mL
Classical Pathway = assay: WEISLAB Complement system Screen, classical pathway MAC (C5b-C9) formation; assay type: biochemical, human; conditions: single dose of 2 μM; CP-dependent MAC formation
Protocol: (§1) To identify antibodies that block all 3 complement pathways, antibodies are screened using an enzyme immunoassay for the qualitative determination of functional classical, lectin and alternative complement pathways in human serum using the WEISLAB® Complement system Screen (Svar Life Science AB, Malmö, Sweden).
(§2) To monitor inhibition of the complement system in human serum, the scFv of the invention or the comparator molecules are tested using an enzyme immunoassay for the qualitative determination of functional classical, lectin and alternative complement pathways in human serum using the WEISLAB® Complement system Screen (Svar Life Science AB, Malmö, Sweden), following the supplier's instructions. The amount of C5b-C9 neoantigen generated is proportional to the functional activity of complement pathways. The scFv of the invention and the comparator molecules are tested in a concentration response curve and the IC50 for the inhibition is calculated using the GraphPadPrism software and a non-linear, 4 parameters curve regression.

Lectin Pathway = assay: WEISLAB Complement system Screen, lectin pathway MAC (C5b-C9) formation; assay type: biochemical, human; conditions: single dose of 2 μM; LP-dependent MAC formation
Protocol: as §1, §2

Alternative Pathway = assay: WEISLAB Complement system Screen, alternative pathway MAC (C5b-C9) formation; assay type: biochemical, human; conditions: single dose of 2 μM; AP-dependent MAC formation
Protocol: as §1, §2

[3] = 40 nmol IVT, scFv versus Fab (ranibizumab); in words; cited from earlier work

Molecule | Melting temperature [1] | Loss in monomeric content after 2 weeks of incubation at 37° C. [2] | Loss in monomeric content with concentration [2] | also measured
B1 |  |  |  | Binding affinity to C3 and C3b compared to parental molecule Clone IV (human C3): comparable to the parental molecule; Increase of thermal stability of the construct ([1]; versus preceding variant): 11.7 °C
B2 | 67.7 °C | 2.2% | no loss | 
B3 | 67.2 °C | 2.3% | 1.6% | 
B4 |  |  |  | Residual classical pathway complement activity with Clone IV (Classical Pathway): 2.9 ± 0.0%; Residual lectin pathway complement activity with Clone IV [%] (Lectin Pathway): 0.5 ± 0.9%; Residual alternative pathway complement activity with Clone IV [%] (Alternative Pathway): −0.1 ± 0.2%
B5 |  |  |  | Retinal penetration after equimolar intravitreal injection [3]: improved retinal penetration
